Experimental data published in paper PMC11905881, “Incorporation of polymerizable linkers into aptamers for high-affinity nanoscale molecularly imprinted polymer hybrids: analysis of positional selectivity†”.

Tests used:
trypsin = trypsin (UniProt P00760); experiment: SPR; conditions: embedded in imprinted polymer nanoparticle, SPR: PBST (10 mM phosphate buffered saline, pH 7.4, 0.01% Tween 20), 25 °C, nanoparticles immobilized on carboxymethyl dextran Au chips, protein 4-64 nM, n = 3
lysozyme = lysozyme (UniProt P00698 19-147); experiment: SPR; lysozyme-imprinted polymer hybrid; SPR: PBST (10 mM phosphate buffered saline, pH 7.4, 0.01% Tween 20), 25 °C; nanoparticles immobilized on carboxymethyl dextran Au chips, protein 4-64 nM; n = 3; conditions: protein: commercial
lysozyme, sequence (P00698 19-147): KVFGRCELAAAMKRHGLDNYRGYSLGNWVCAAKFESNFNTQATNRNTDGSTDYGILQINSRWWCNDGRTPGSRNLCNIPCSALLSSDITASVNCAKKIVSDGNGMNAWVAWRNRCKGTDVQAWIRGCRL

trypsin, sequence (P00760 24-246): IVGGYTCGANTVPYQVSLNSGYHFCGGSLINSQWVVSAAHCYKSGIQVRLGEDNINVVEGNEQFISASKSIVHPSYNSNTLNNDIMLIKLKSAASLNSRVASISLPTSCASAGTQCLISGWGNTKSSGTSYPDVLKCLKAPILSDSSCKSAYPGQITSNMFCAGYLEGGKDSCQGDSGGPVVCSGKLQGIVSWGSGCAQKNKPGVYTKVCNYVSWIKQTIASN

ATCTACGAATTCATCAGGGCTAAAGAGTGCAGAGTTACTTAG [AptaMIP-7 oligo]
Kd (trypsin; one carboxy-dT at 5' end): 4.89 µM

ATCTACGAATTCATCAGGGCTAAAGAGTGCAGAGTTACTTAG [AptaMIP-5 oligo]
Kd (trypsin; two carboxy-dT, one at each end (positions 1 and 6 of Fig. 1)): 8.95 µM

ATCTACGAATTCATCAGGGCTAAAGAGTGCAGAGTTACTTAG [AptaMIP-3 oligo]
Kd (trypsin; three carboxy-dT, both ends and centre): 9.75 µM

ATCTACGAATTCATCAGGGCTAAAGAGTGCAGAGTTACTTAG [AptaMIP-1 oligo]
Kd (trypsin; six carboxy-dT (ester or amide, polymerizable), throughout): 4.68 µM

ATCTACGAATTCATCAGGGCTAAAGAGTGCAGAGTTACTTAG [AptaMIP-4 oligo]
Kd (trypsin; three carboxy-dT near centre (9 bases free at 3', 14 at 5')): 9.87 µM

ATCTACGAATTCATCAGGGCTAAAGAGTGCAGAGTTACTTAG [AptaMIP-8 oligo]
Kd (trypsin; one central carboxy-dT): 4.17 µM

ATCTACGAATTCATCAGGGCTAAAGAGTGCAGAGTTACTTAG [AptaMIP-2 oligo]
Kd (trypsin; four carboxy-dT, evenly spaced, no central linker): 2.33 µM

ATCTACGAATTCATCAGGGCTAAAGAGTGCAGAGTTACTTAG [AptaMIP-6 oligo]
Kd (trypsin; one carboxy-dT at 3' end): 4.68 µM

B1: AptaMIP-1 oligo (ssDNA)
DNA: ATCTACGAATTCATCAGGGCTAAAGAGTGCAGAGTTACTTAG
modifications: six carboxy-dT (ester or amide, polymerizable), throughout; embedded in imprinted polymer nanoparticle
Kd (lysozyme): 0.00128 µM

B2: AptaMIP-4 oligo (ssDNA)
DNA: B1 DNA
modifications: three carboxy-dT near centre (9 bases free at 3', 14 at 5'); embedded in imprinted polymer nanoparticle
Kd (lysozyme): 0.0427 µM

B3: AptaMIP-3 oligo (ssDNA)
DNA: B1 DNA
modifications: three carboxy-dT, both ends and centre; embedded in imprinted polymer nanoparticle
Kd (lysozyme): 0.0012 µM
